The labels stand for the following.
B1: E3 ubiquitin-protein ligase Midline-1 (Homo sapiens), O15344 (parent)
chain: METLESELTCPICLELFEDPLLLPCAHSLCFNCAHRILVSHCATNESVESITAFQCPTCRHVITLSQRGLDGLKRNVTLQNIIDRFQKASVSGPNSPSETRRERAFDANTMTSAEKVLCQFCDQDPAQDAVKTCVTCEVSYCDECLKATHPNKKPFTGHRLIEPIPDSHIRGLMCLEHEDEKVNMYCVTDDQLICALCKLVGRHRDHQVAALSERYDKLKQNLESNLTNLIKRNTELETLLAKLIQTCQHVEVNASRQEAKLTEECDLLIEIIQQRRQIIGTKIKEGKVMRLRKLAQQIANCKQCIERSASLISQAEHSLKENDHARFLQTAKNITERVSMATASSQVLIPEINLNDTFDTFALDFSREKKLLECLDYLTAPNPPTIREELCTASYDTITVHWTSDDEFSVVSYELQYTIFTGQANVVSLCNSADSWMIVPNIKQNHYTVHGLQSGTKYIFMVKAINQAGSRSSEPGKLKTNSQPFKLDPKSAHRKLKVSHDNLTVERDESSSKKSHTPERFTSQGSYGVAGNVFIDSGRHYWEVVISGSTWYAIGLAYKSAPKHEWIGKNSASWALCRCNNNWVVRHNSKEIPIEPAPHLRRVGILLDYDNGSIAFYDALNSIHLYTFDVAFAQPVCPTFTVWNKCLTIITGLPIPDHLDCTEQLP
partner: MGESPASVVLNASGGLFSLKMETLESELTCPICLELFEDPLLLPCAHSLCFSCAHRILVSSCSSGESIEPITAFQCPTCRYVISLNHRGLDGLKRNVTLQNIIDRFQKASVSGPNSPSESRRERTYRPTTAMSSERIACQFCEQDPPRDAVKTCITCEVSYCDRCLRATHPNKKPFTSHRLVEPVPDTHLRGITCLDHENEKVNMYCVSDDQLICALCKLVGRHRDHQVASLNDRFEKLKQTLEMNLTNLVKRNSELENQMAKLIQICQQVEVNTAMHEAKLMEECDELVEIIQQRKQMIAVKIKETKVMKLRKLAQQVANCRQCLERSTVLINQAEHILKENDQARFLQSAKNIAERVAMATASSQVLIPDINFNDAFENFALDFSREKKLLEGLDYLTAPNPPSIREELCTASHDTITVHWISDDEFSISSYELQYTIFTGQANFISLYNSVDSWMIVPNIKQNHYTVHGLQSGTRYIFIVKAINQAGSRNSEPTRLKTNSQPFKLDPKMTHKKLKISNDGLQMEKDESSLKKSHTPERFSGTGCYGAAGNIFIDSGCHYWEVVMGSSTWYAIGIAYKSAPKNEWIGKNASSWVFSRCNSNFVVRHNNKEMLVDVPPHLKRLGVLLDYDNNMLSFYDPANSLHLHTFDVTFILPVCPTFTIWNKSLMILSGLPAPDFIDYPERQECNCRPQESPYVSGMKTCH
B2: U4/U6 small nuclear ribonucleoprotein Prp31 (Homo sapiens), Q8WWY3 (parent)
chain: MSLADELLADLEEAAEEEEGGSYGEEEEEPAIEDVQEETQLDLSGDSVKTIAKLWDSKMFAEIMMKIEEYISKQAKASEVMGPVEAAPEYRVIVDANNLTVEIENELNIIHKFIRDKYSKRFPELESLVPNALDYIRTVKELGNSLDKCKNNENLQQILTNATIMVVSVTASTTQGQQLSEEELERLEEACDMALELNASKHRIYEYVESRMSFIAPNLSIIIGASTAAKIMGVAGGLTNLSKMPACNIMLLGAQRKTLSGFSSTSVLPHTGYIYHSDIVQSLPPDLRRKAARLVAAKCTLAARVDSFHESTEGKVGYELKDEIERKFDKWQEPPPVKQVKPLPAPLDGQRKKRGGRRYRKMKERLGLTEIRKQANRMSFGEIEEDAYQEDLGFSLGHLGKSGSGRVRQTQVNEATKARISKTLQRTLQKQSVVYGGKSTIRDRSSGTASSVAFTPLQGLEIVNPQAAEKKVAEANQKYFSSMAEFLKVKGEKSGLMST
partner: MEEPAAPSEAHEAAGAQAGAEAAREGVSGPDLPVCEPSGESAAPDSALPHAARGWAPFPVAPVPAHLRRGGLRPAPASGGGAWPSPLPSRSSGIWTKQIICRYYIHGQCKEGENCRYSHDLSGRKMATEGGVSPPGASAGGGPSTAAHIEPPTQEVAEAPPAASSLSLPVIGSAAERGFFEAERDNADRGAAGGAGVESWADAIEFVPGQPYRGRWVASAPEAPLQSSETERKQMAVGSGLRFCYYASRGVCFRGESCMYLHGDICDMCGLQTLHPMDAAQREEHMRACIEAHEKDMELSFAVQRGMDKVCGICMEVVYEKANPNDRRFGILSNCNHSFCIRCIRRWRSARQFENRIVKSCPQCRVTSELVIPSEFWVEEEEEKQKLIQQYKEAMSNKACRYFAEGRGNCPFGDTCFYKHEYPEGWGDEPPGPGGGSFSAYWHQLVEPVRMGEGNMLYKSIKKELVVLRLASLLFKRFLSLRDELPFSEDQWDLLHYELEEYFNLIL
B3: U4/U6 small nuclear ribonucleoprotein Prp31 (Homo sapiens), Q8WWY3 (parent)
chain: B2 chain
partner: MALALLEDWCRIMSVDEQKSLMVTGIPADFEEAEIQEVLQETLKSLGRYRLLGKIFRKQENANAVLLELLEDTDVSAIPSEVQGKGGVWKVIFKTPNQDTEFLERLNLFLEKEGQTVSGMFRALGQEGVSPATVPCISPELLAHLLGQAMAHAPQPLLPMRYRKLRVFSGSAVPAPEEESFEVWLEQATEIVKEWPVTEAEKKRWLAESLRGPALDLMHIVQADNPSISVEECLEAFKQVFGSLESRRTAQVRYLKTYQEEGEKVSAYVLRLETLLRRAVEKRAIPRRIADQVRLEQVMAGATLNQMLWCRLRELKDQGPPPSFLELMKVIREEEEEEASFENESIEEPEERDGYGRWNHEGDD
B4: E3 ubiquitin-protein ligase Midline-1 (Homo sapiens), O15344 (parent)
chain: B1 chain
B5: U4/U6 small nuclear ribonucleoprotein Prp3 (Homo sapiens), O43395 (parent)
chain: MALSKRELDELKPWIEKTVKRVLGFSEPTVVTAALNCVGKGMDKKKAADHLKPFLDDSTLRFVDKLFEAVEEGRSSRHSKSSSDRSRKRELKEVFGDDSEISKESSGVKKRRIPRFEEVEEEPEVIPGPPSESPGMLTKLQIKQMMEAATRQIEERKKQLSFISPPTPQPKTPSSSQPERLPIGNTIQPSQAATFMNDAIEKARKAAELQARIQAQLALKPGLIGNANMVGLANLHAMGIAPPKVELKDQTKPTPLILDEQGRTVDATGKEIELTHRMPTLKANIRAVKREQFKQQLKEKPSEDMESNTFFDPRVSIAPSQRQRRTFKFHDKGKFEKIAQRLRTKAQLEKLQAEISQAARKTGIHTSTRLALIAPKKELKEGDIPEIEWWDSYIIPNGFDLTEENPKREDYFGITNLVEHPAQLNPPVDNDTPVTLGVYLTKKEQKKLRRQTRREAQKELQEKVRLGLMPPPEPKVRISNLMRVLGTEAVQDPTKVEAHVRAQMAKRQKAHEEANAARKLTAEQRKVKKIKKLKEDISQGVHISVYRVRNLSNPAKKFKIEANAGQLYLTGVVVLHKDVNVVVVEGGPKAQKKFKRLMLHRIKWDEQTSNTKGDDDEESDEEAVKKTNKCVLVWEGTAKDRSFGEMKFKQCPTENMAREHFKKHGAEHYWDLALSESVLESTD
partner: B1 partner
B6: Progranulin (Homo sapiens), P28799 (parent)
chain: MWTLVSWVALTAGLVAGTRCPDGQFCPVACCLDPGGASYSCCRPLLDKWPTTLSRHLGGPCQVDAHCSAGHSCIFTVSGTSSCCPFPEAVACGDGHHCCPRGFHCSADGRSCFQRSGNNSVGAIQCPDSQFECPDFSTCCVMVDGSWGCCPMPQASCCEDRVHCCPHGAFCDLVHTRCITPTGTHPLAKKLPAQRTNRAVALSSSVMCPDARSRCPDGSTCCELPSGKYGCCPMPNATCCSDHLHCCPQDTVCDLIQSKCLSKENATTDLLTKLPAHTVGDVKCDMEVSCPDGYTCCRLQSGAWGCCPFTQAVCCEDHIHCCPAGFTCDTQKGTCEQGPHQVPWMEKAPAHLSLPDPQALKRDVPCDNVSSCPSSDTCCQLTSGEWGCCPIPEAVCCSDHQHCCPQGYTCVAEGQCQRGSEIVAGLEKMPARRASLSHPRDIGCDQHTSCPVGQTCCPSLGGSWACCQLPHAVCCEDRQHCCPAGYTCNVKARSCEKEVVSAQPATFLARSPHVGVKDVECGEGHFCHDNQTCCRDNRQGWACCPYRQGVCCADRRHCCPAGFRCAARGTKCLRREAPRWDAPLRDPALRQLL
partner: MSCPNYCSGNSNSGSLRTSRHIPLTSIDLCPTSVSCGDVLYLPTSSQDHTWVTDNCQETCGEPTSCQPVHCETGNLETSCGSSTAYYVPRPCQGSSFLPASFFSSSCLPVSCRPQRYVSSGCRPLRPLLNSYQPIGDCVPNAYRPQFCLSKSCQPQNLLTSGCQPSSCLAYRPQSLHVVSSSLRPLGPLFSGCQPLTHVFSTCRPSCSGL
B7: Serotonin N-acetyltransferase (Homo sapiens), Q16613 (parent)
chain: MSTQSTHPLKPEAPRLPPGIPESPSCQRRHTLPASEFRCLTPEDAVSAFEIEREAFISVLGVCPLYLDEIRHFLTLCPELSLGWFEEGCLVAFIIGSLWDKERLMQESLTLHRSGGHIAHLHVLAVHRAFRQQGRGPILLWRYLHHLGSQPAVRRAALMCEDALVPFYERFSFHAVGPCAITVGSLTFMELHCSLRGHPFLRRNSGC

In the first assay the parent is B1. The settings on record: with MID2, Q9UJV3-2.
Regarding C266R, the “effect of a mutation on the interaction” value is “with no effect”. As for K370E, the “effect of a mutation on the interaction” value is recorded as “with no effect”. L626P: the “effect of a mutation on the interaction” value is on record as “with no effect”.

Turning to P151L, the “effect of a mutation on the interaction” value is reported as “with no effect”.

In a further assay the parent is B2. The settings on record: with mkrn3_human MKRN3, Q13064.
Turning to L107V, the “effect of a mutation on the interaction” value is listed as “with no effect”.

The next assay covers variants of B3. The note with it: with pnma2_human PNMA2, Q9UL42.
L107V: the “effect of a mutation on the interaction” value is given as “with no effect”.

Another assay covers variants of B4. The note with it: with meox1_human MEOX1, P50221.
Chain of meox1_human MEOX1, P50221 (P50221 whole entry): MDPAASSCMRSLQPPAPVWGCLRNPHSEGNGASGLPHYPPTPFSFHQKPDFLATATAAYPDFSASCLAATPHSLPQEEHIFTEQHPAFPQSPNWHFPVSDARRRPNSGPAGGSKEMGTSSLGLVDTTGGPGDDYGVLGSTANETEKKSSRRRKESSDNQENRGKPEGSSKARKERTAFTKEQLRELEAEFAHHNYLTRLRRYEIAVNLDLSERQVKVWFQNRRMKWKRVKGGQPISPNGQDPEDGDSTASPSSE
As for K370E, the “effect of a mutation on the interaction” value is “with no effect”.

C266R: the “effect of a mutation on the interaction” value is reported as “with no effect”.

In the case of P151L, the “effect of a mutation on the interaction” value is recorded as “with no effect”.

For the variant L626P, the “effect of a mutation on the interaction” value is “with no effect”.

A further assay covers variants of B5. The settings on record: with MID2, Q9UJV3-2.
For T494M, the “effect of a mutation on the interaction” value is on record as “with no effect”.

For P493S, the “effect of a mutation on the interaction” value is “with no effect”. For the variant A489D, the “effect of a mutation on the interaction” value is “with no effect”.

Variants of B6 are the subject of the next assay. The note with it: with kr261_human KRTAP26-1, Q6PEX3.
Take A9D: the “effect of a mutation on the interaction” value is reported as “disrupting interaction strength”.

Consider R432C, for which the “effect of a mutation on the interaction” value is reported as “disrupting interaction strength”. In the case of P248L, the “effect of a mutation on the interaction” value was “with no effect”. For P451L, the “effect of a mutation on the interaction” value is “with no effect”.

Another assay covers variants of B7. The settings on record: with bhe40_human BHLHE40, O14503.
Chain of bhe40_human BHLHE40, O14503 (O14503 whole entry): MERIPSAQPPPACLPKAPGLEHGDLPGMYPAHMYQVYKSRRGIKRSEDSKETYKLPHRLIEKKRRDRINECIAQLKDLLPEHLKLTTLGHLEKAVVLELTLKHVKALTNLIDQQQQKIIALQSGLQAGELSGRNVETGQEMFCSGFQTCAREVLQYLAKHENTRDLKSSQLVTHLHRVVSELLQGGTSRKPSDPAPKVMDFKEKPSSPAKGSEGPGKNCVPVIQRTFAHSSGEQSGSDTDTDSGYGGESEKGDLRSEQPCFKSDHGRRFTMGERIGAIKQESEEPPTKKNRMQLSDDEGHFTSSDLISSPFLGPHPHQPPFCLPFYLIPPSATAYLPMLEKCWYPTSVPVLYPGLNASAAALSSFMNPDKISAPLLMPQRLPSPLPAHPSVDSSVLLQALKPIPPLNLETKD
Regarding T3M, the “effect of a mutation on the interaction” value is listed as “with no effect”.

As for A129T, the “effect of a mutation on the interaction” value is given as “disrupting interaction strength”.

Another assay covers variants of B7. The settings on record: with mdfi_human MDFI.
For T3M, the “effect of a mutation on the interaction” value is given as “with no effect”. Regarding A129T, the “effect of a mutation on the interaction” value is on record as “with no effect”.
